According to patent publication US7122190:

Tests used:
[1] = target: viral gp41 of HIV-1 (on virions and HIV-1 infected cells) (HIV-1) (UniProt P03377); assay: cell-based or functional assay
[2] = target: viral gp41 (HIV-1IIIB transmembrane protein on infected cells and virions) (HIV-1IIIB) (UniProt P04578); assay: cell-based or functional assay

Row | Substance | 90% block of syncytia formation (HIV-1IIIB cell fusion assay) [1] | 90% neutralisation of HIV-1IIIB infection [1] | Cell fusion (IC90) [2] | HIV infectivity (IC90) [2]
1 | M41-P, M41 with an Ile to Pro mutation at position 578 (from UniProt P03377 540-686) | 85 nM | 70 nM | – | –
2 | M41 (maltose binding protein fused to the extracellular domain of HIV-1 gp41, residues 540-686) (from UniProt P03377 540-686) | – | – | > 50 µM | > 16 µM
